The results in this text go back to US20250339569A1 (3B PHARMACEUTICALS, published 2025).

The target of test [1] is T1, Fc-fusion protein of human carbonic anhydrase IX (human, UniProt Q16790 38-414). Nature of the test: SPR, captured hCAIX-Fc; pKD category A: >8.0.
Test [2] has as its target T1, Fc-fusion protein of human carbonic …. Description: SPR, captured hCAIX-Fc; t1/2 category C: 2.1-5.0 min. As for the experimental part: (§1) Stock solutions of test compounds were prepared by dissolving each compound in DMSO. DMSO stock solution were diluted 1:1000 in Running Buffer without DMSO. […] SPR binding analyses were performed in Single Cycle Kinetic (SCK) mode at 25° C.
(§2) For each test compound, SPR raw data in the form of resonance units (RU) were plotted as sensorgrams using the Biacore™ T200 control software. The signal from the blank sensorgram was subtracted from that of the test compound sensorgram (blank corrected). The blank corrected sensorgram was corrected for baseline drift by subtracting the sensorgram of a SCK run without the test compound (running buffer only). […] Raw data and fit results were imported as text files in IDBS. The pKD value (negative decadic logarithm of dissociation constant) was calculated in the IDBS excel template.

Test [3] shares this target. Description: SPR, captured hCAIX-Fc; t1/2 category B: 5.1-15.0 min. As for the experimental part: as §1, §2

Starred links: 1 amine or outer side, 2 acyl side, 3 side chain; linkers in the order of their positions; H or OH if unused. Positions of bridges follow the written chain, without caps; N, C: chain ends. Non-standard residues stand in square brackets, D forms with d. Groups on a side chain read outwards from the residue. Primed or numbered codes have the meaning given here. *: point of attachment. Af3(HySuc) = 3-amino-L-phenylalanine acylated on the ring amine with 2-(3,6-dioxo-1,2,3,6-tetrahydropyridazin-4-yl)acetic acid, O=C(Cc1cc(=O)[nH][nH]c1=O)Nc1cccc(C[C@H](N[*:1])C(=O)[*:2])c1; af3(ac-glu) = lower case: 3-amino-D-phenylalanine, ring amine acylated with N-acetyl-D-glutamic acid, CC(=O)N[C@H](CCC(=O)[*:3])C(=O)Nc1cccc(C[C@@H](N[*:1])C(=O)[*:2])c1; af3(ac-asp) = lower case: 3-amino-D-phenylalanine, ring amine acylated with N-acetyl-D-aspartic acid, CC(=O)N[C@H](CC(=O)[*:3])C(=O)Nc1cccc(C[C@@H](N[*:1])C(=O)[*:2])c1; Af3(Ac-Asp) = 3-aminophenylalanine acylated on the ring amine with N-acetyl-aspartic acid; APAc″ = 2-(4-(amino)piperidin-1-yl)acetic acid, NC1CCN(CC(=O)*)CC1; DOTA = O=C(O)CN1CCN(CC(=O)O)CCN(CC(=O)*)CCN(CC(=O)O)CC1; Phe(4-CF3) = N[C@@H](Cc1ccc(C(F)(F)F)cc1)C(=O)O; Phe(4-I) = N[C@@H](Cc1ccc(I)cc1)C(=O)O; mXylylene = c1cc(C[*:1])cc(C[*:2])c1; Bta = N[C@@H](Cc1csc2ccccc12)C(=O)O; Cha = N[C@@H](CC1CCCCC1)C(=O)O; Propanoyl(3-OH) = O=C(CCO)*; 4Amc = not defined here; APAc = not defined here; Ac5c = NC1(C(=O)O)CCCC1; Inp′ = not defined here; Apr = not defined here; Dap = NC[C@H](N)C(=O)O; Ttds″ = Ttds spacer; Sar = CNCC(=O)O Where only a bound is given, the exact number is not on record here.

As to {DOTA-Ttds″}-VYCE[Sar]DWLTWQC-NH2 (linker 3-12 via mXylylene; not fully specified) [3BP-3271], the pKD in test [1] was over 8 pkd. Also, the “t1/2 (half-life of the complex, SPR)” value in test [2] was 2.1 to 5 min.

B1: 3BP-4253 (peptide)
peptide: {DOTA}-DCE[dP]DWLTW[Dap]C-NH2
modifications: lactam 10-1; linker 2-11 via mXylylene
SMILES: CC(C)C[C@@H]1NC(=O)[C@H](Cc2c[nH]c3ccccc23)NC(=O)[C@H](CC(=O)O)NC(=O)[C@H]2CCCN2C(=O)[C@H](CCC(=O)O)NC(=O)[C@@H]2CSCc3cccc(c3)CSC[C@@H](C(N)=O)NC(=O)[C@H](CNC(=O)C[C@H](NC(=O)CN3CCN(CC(=O)O)CCN(CC(=O)O)CCN(CC(=O)O)CC3)C(=O)N2)NC(=O)[C@H](Cc2c[nH]c3ccccc23)NC(=O)[C@H]([C@@H](C)O)NC1=O
As for B1, the “t1/2 (half-life of the complex, SPR)” value in test [3] lay in the range of 5.1 to 15 min. This molecule also yielded a pKD in test [1] of over 8 pkd.

For {DOTA-APAc″}-VYCE[dP]D[af3(ac-glu)]LTWSC-NH2 (linker 3-12 via mXylylene; not fully specified) [3BP-4362], the “t1/2 (half-life of the complex, SPR)” value in test [3] lay in the range of 5.1 to 15 min. Also, in test [1], the pKD was over 8 pkd.

Molecule {Propanoyl(3-OH)}-YCE[dP]DWLTWE([Apr-DOTA])C-NH2 (linker 2-11 via mXylylene; reading uncertain) [3BP-3842] gave a pKD in test [1] of over 8 pkd. The “t1/2 (half-life of the complex, SPR)” value in test [2] lay in the range of 2.1 to 5 min.

{DOTA-APAc}-VYCE[dP]D[Phe(4-I)]LTWSC-NH2 (linker 3-12 via mXylylene; not fully specified; reading uncertain) [3BP-4134] gave a pKD in test [1] of over 8 pkd. Also, in test [2], the “t1/2 (half-life of the complex, SPR)” value fell in the range of 2.1 to 5 min.

Consider {DOTA-4Amc}-DCE[dP]DWLTW[Dap]C-NH2 (lactam 10-1; linker 2-11 via mXylylene; reading uncertain) [3BP-4258], for which the pKD in test [1] was over 8 pkd. Besides, the “t1/2 (half-life of the complex, SPR)” value in test [2] lay in the range of 2.1 to 5 min.

{DOTA-Inp′}-DCE[dP]DWLTW[Dap]C-NH2 (lactam 10-1; linker 2-11 via mXylylene) [3BP-4256]: the pKD in test [1] is over 8 pkd. The “t1/2 (half-life of the complex, SPR)” value in test [2] was 2.1 to 5 min.

B2: 3BP-3311 (peptide)
peptide: Ac-VYCE[Sar]D[Bta]LTWQC-NH2
modifications: linker 3-12 via mXylylene
SMILES: CC(=O)N[C@H](C(=O)N[C@@H](Cc1ccc(O)cc1)C(=O)N[C@H]1CSCc2cccc(c2)CSC[C@@H](C(N)=O)NC(=O)[C@H](CCC(N)=O)NC(=O)[C@H](Cc2c[nH]c3ccccc23)NC(=O)[C@H]([C@@H](C)O)NC(=O)[C@H](CC(C)C)NC(=O)[C@H](Cc2csc3ccccc23)NC(=O)[C@H](CC(=O)O)NC(=O)CN(C)C(=O)[C@H](CCC(=O)O)NC1=O)C(C)C
In test [1], B2 registered a pKD of over 8 pkd. Further, the “t1/2 (half-life of the complex, SPR)” value in test [2] is 2.1 to 5 min.

With {DOTA}-YCE[dP]DWLTWSC-NH2 (linker 2-11 via mXylylene; also: ['indium complexed by DOTA']) [3BP-3906], the pKD in test [1] is over 8 pkd. Moreover, the “t1/2 (half-life of the complex, SPR)” value in test [2] was in the range of 2.1 to 5 min.

Turning to {DOTA-APAc″}-VYCE[dP]D[Af3(Ac-Asp)]LTWSC-NH2 (linker 3-12 via mXylylene) [3BP-4363], the “t1/2 (half-life of the complex, SPR)” value in test [3] lay within 5.1 to 15 min. In test [1], this molecule registered a pKD of over 8 pkd.

As to {DOTA-APAc″}-VYCE[dP]D[af3(ac-asp)]LTWSC-NH2 (linker 3-12 via mXylylene; not fully specified) [3BP-4364], in test [3], the “t1/2 (half-life of the complex, SPR)” value is 5.1 to 15 min. For the same molecule, the pKD in test [1] is over 8 pkd.

With {DOTA-APAc″}-DCE[dP]DWLTW[Dap]C-NH2 (lactam 10-1; linker 2-11 via mXylylene) [3BP-4254], the pKD in test [1] was over 8 pkd. Moreover, the “t1/2 (half-life of the complex, SPR)” value in test [2] lay in the range of 2.1 to 5 min.

B3: 3BP-4257 (peptide)
peptide: {DOTA}-SDCE[dP]DWLTW[Dap]C-NH2
modifications: lactam 11-2; linker 3-12 via mXylylene
SMILES: CC(C)C[C@@H]1NC(=O)[C@H](Cc2c[nH]c3ccccc23)NC(=O)[C@H](CC(=O)O)NC(=O)[C@H]2CCCN2C(=O)[C@H](CCC(=O)O)NC(=O)[C@@H]2CSCc3cccc(c3)CSC[C@@H](C(N)=O)NC(=O)[C@H](CNC(=O)C[C@H](NC(=O)[C@H](CO)NC(=O)CN3CCN(CC(=O)O)CCN(CC(=O)O)CCN(CC(=O)O)CC3)C(=O)N2)NC(=O)[C@H](Cc2c[nH]c3ccccc23)NC(=O)[C@H]([C@@H](C)O)NC1=O
Molecule B3 returned a pKD in test [1] of over 8 pkd. The “t1/2 (half-life of the complex, SPR)” value in test [2] was in the range of 2.1 to 5 min.

Consider {DOTA-APAc″}-V[Dap]CE[dP]DWLTWDC-NH2 (lactam 2-11; linker 3-12 via mXylylene) [3BP-4176], for which the pKD in test [1] is over 8 pkd. In addition, in test [2], the “t1/2 (half-life of the complex, SPR)” value was in the range of 2.1 to 5 min.

Turning to {DOTA-APAc″}-VYCE[dP]D[Af3(HySuc)]LTWSC-NH2 (linker 3-12 via mXylylene) [3BP-4322], the “t1/2 (half-life of the complex, SPR)” value in test [3] fell in the range of 5.1 to 15 min. In test [1], this molecule returned a pKD of over 8 pkd.

In the case of {DOTA-APAc″}-YCE[dP]DWLTWSC-NH2 (linker 2-11 via mXylylene) [3BP-3867], the pKD in test [1] was over 8 pkd. For the same molecule, in test [2], the “t1/2 (half-life of the complex, SPR)” value was 2.1 to 5 min.

For the molecule {DOTA-APAc″}-VYCE[dP]D[Phe(4-CF3)]LTWSC-NH2 (linker 3-12 via mXylylene; not fully specified) [3BP-4139], the pKD in test [1] is over 8 pkd. For the same molecule, the “t1/2 (half-life of the complex, SPR)” value in test [2] fell in the range of 2.1 to 5 min.

B4: 3BP-3058 (peptide)
peptide: Ac-VYCEGDWLTWAC-NH2
modifications: linker 3-12 via mXylylene
SMILES: CC(=O)N[C@H](C(=O)N[C@@H](Cc1ccc(O)cc1)C(=O)N[C@H]1CSCc2cccc(c2)CSC[C@@H](C(N)=O)NC(=O)[C@H](C)NC(=O)[C@H](Cc2c[nH]c3ccccc23)NC(=O)[C@H]([C@@H](C)O)NC(=O)[C@H](CC(C)C)NC(=O)[C@H](Cc2c[nH]c3ccccc23)NC(=O)[C@H](CC(=O)O)NC(=O)CNC(=O)[C@H](CCC(=O)O)NC1=O)C(C)C
Regarding B4, the pKD in test [1] was over 8 pkd. Further, the “t1/2 (half-life of the complex, SPR)” value in test [2] fell in the range of 2.1 to 5 min.

Regarding {DOTA-Ttds″}-VYCEGDWLTWAC-NH2 (linker 3-12 via mXylylene; not fully specified) [3BP-3272], the pKD in test [1] is over 8 pkd. Further, the “t1/2 (half-life of the complex, SPR)” value in test [2] is 2.1 to 5 min.

B5: 3BP-3934 (peptide)
peptide: {DOTA}-YCE[dP]KWLEWSC-NH2
modifications: linker 2-11 via mXylylene; lactam 5-8
SMILES: CC(C)C[C@@H]1NC(=O)[C@H](Cc2c[nH]c3ccccc23)NC(=O)[C@@H]2CCCCNC(=O)CC[C@H](NC1=O)C(=O)N[C@@H](Cc1c[nH]c3ccccc13)C(=O)N[C@@H](CO)C(=O)N[C@H](C(N)=O)CSCc1cccc(c1)CSC[C@H](NC(=O)[C@H](Cc1ccc(O)cc1)NC(=O)CN1CCN(CC(=O)O)CCN(CC(=O)O)CCN(CC(=O)O)CC1)C(=O)N[C@@H](CCC(=O)O)C(=O)N1CCC[C@@H]1C(=O)N2
B5 showed a pKD in test [1] of over 8 pkd. For the same molecule, in test [2], the “t1/2 (half-life of the complex, SPR)” value lay within 2.1 to 5 min.

For the molecule {DOTA-APAc″}-VYCE[dP]DW[Cha]TWSC-NH2 (linker 3-12 via mXylylene) [3BP-4143], the pKD in test [1] is over 8 pkd. For the same molecule, in test [2], the “t1/2 (half-life of the complex, SPR)” value was in the range of 2.1 to 5 min.

{DOTA-APAc}-VYCE[dP]DW[Ac5c]TWSC-NH2 (linker 3-12 via mXylylene; reading uncertain) [3BP-3587] yielded a pKD in test [1] of over 8 pkd. Also, the “t1/2 (half-life of the complex, SPR)” value in test [2] fell in the range of 2.1 to 5 min.

B6: 3BP-3313 (peptide)
peptide: Ac-VYCE[Sar]DWLTWAC-NH2
modifications: linker 3-12 via mXylylene
SMILES: CC(=O)N[C@H](C(=O)N[C@@H](Cc1ccc(O)cc1)C(=O)N[C@H]1CSCc2cccc(c2)CSC[C@@H](C(N)=O)NC(=O)[C@H](C)NC(=O)[C@H](Cc2c[nH]c3ccccc23)NC(=O)[C@H]([C@@H](C)O)NC(=O)[C@H](CC(C)C)NC(=O)[C@H](Cc2c[nH]c3ccccc23)NC(=O)[C@H](CC(=O)O)NC(=O)CN(C)C(=O)[C@H](CCC(=O)O)NC1=O)C(C)C
As to B6, the pKD in test [1] is over 8 pkd. Also, the “t1/2 (half-life of the complex, SPR)” value in test [2] lay within 2.1 to 5 min.
